According to patent US20220073643A1 (NANJING GENSCRIPT BIOTECH, published 2022):

B1: 196A12B10 (antibody, V domains shown)
VH: QIQWVQSGPELKKPRETVKISCKASGYTFTDYSMHWVKQAPGKGLKWMGWINSETGEATYADDFRGRFALSLETSATTAFLQINSLKNEDTGTYFCARFYYGNSFASWGQGTTLTVSS
VL: DIVMTQFPSSLTVTAGEKVTMTCKSSQSLLNGGNQKNYLTWYQQKPGLPPKLLIYWASTRESGVPDRFTGSGSGTEFTLTISSVQAEDLAVYYCQNNYYFPLTFGAGTKLELK
B2: 194D3B2 (antibody, V domains shown)
VH: QAYLQQSGAELVRSGASVKMSCKASGYPFTSYNMHWVKQTPGQGLEWVGYIYPGNGGTNYNQKFRDKATLTADTSSSTAYMQISRLTSDDSAVYFCLTGRGFAYWGQGTLVTVSA
VL: DIVMTQSPSSLIVTPGERVTMSCKSSQSLLNSGNQKNYLTWYQQKPGQPPKLLIYRASTRESGVPDRFTGSGSGTDFTLTISSVQAEDLAVYYCQNDYSYPLTFGIGTKLELK
B3: 263E9F3 (antibody, V domains shown)
VH: EIQVQQSGPELMKPGASVKISCRSSGYSFTSYYIHWVKQSRGKSLEWIGYIDPFSGGTRYNQKFEGKATLTVDKSSTTAYMHLSSLTSEDSAVYYCASLRFFAYWGQGTLVTVSA
VL: DIVMTQSPSSLTVTAGEKVTMTCKSSQSLLNSGNQENYLTWYQQKPGQPPELLISRASTRQSGVPDRFTGSGSGTDFTLTISSVQTEDLAVYYCQNDYSYPLTFGAGTKLELK
B4: 266B11F7 (antibody, V domains shown)
VH: QVQMKESGPGLVAPSQSLSITCTVSGFSLTTYGVTWVRQPPGKGLEWLGVIWGDGSTNYHSALTSRLRISKDKSKSQVFLKLSSLQTDDTATYYCAKPGRGNALDYWGQGTSVTVSS
VL: DIVMTQSPSSLTVTAGEKVTMRCKSSQSLLNSGNQKNYLTWYQQKPGQPPKLLVYWASTRESGVPDRFTGSGSGTDFTLTVSSVQAEDLAVYYCQNDYIFPLTFGAGTKLELK
B5: 267B2C5 (antibody, V domains shown)
VH: QVQLKESGPGLVAPSQSLAITCTVSGFSLTTYGVSWVRQPPGKGLEWLGVIWGDGSTHYHSALISRLSIRKDNSKSQVFLKVNSLQTDDTATYYCGKPGRGNAMDYWGQGTSVTVSS
VL: DIVMTQSPSSLTVTAGEKVTMSCKSSQSLLNSGNQKNYLTWYQQKPGQSPKLLIYWASTRESGVPDRFTGSGSGTDFTLTISSVQAEDLAVYYCQNDYIYPLTFGGGTTLELK
B6: 259B4D4 (antibody, V domains shown)
VH: EIQLQQSGPELMKPGASVRISCKASGYSFTSYYMHWMKQSHVKSLEWIGYIDPFNGNTRYNQKFKDKATLTVDKSSTTAYMHLSSLTSEDSAVYFCASLRFFAYWGQGTLVTVSA
VL: DIVMTQSPSSLTVTAGEKVTMSCNSSQSLLNSGNQKNYLTWYQQKPGQPPKLLIYWASSRESGVPDRFTGSGSGTDFTLTISTVQAEDLAVYYCQNDYSFPLTFGAGTRLELK
B7: 257G7B9 (antibody, V domains shown)
VH: QAYLQQSGAELVRSGASVKMSCKASGYTFTSHNLHWVKQTPGQGLEWIGYIYPGNGNTNYNQKFKGKATLTADTSSSTAYMQISSLTSEDSAVYFCTRDYYGNSFAYWGQGTLVTVSA
VL: DIVMTQSPSSLTEKAGERVSMSCKSSQSLFNSGNQKNYLTWYQQKPGQPPKLLIYWASTRESGVPDRFTGSGSGTDFTLTISSVQAEDLAVYYCQNNYWFPFTFGAGTKLELK
B8: 271B1B6 (antibody, V domains shown)
VH: QAYLQQSGAELVRSGASVKMSCKASGYTFTNYNIHWVKQTPGQGLEWIGYIYPGNGGNYYNQKFKGKATLTADTSSITAYMQISSLTSEDSAVYFCARDYYGNSFAYWGQGTLVTVSA
VL: DIVMTQSPSSLTVTAGEKVTMNCKSSQSLLNSGNQKNYLTWYQQKPGQPPKLLIYWASTRESGVPDRFTGSGSGTDFTLTISSVQAEDLAIYYCQNDYYYPLTFGAGTKLELK
B9: 262C7C10 (antibody, V domains shown)
VH: QAYLQQSGAELVRSGASVKMSCKASGYTFTNYNIHWVKQTPGQGLEWIGYIYPGNGGNYYNQKFKGKATLTADTSSITAYMQISSLTSEDSAVYFCARDYYGNSFAYWGQGTLVTVSA
VL: DIVMTQSPSSLTVTAGEKVTMNCKSSQSLLNSGNQKNYLTWYQQKPGQPPKLLIYWASTRESGVPDRFTGSGSGTDFTLTISSVQAEDLAIYYCQNDYYYPLTFGAGTKLELK
B10: 267H5F12 (antibody, V domains shown)
VH: QAYLQQSGAELVRSGASVKMSCKASGYTFTSHNMHWVKQTPGQGLEWIGYISPGNGYTNYNQKFRGKATLTADTSSSTAYMQISSLTSEDSAVYFCTRDYYGNSFTYWGQGTLVTVSA
VL: DIVMTQSPSSLTEKAGERVSMSCKSSQSLFNSGNQKNYLTWYQQKPGQPPKLLIYWASTRESGVPDRFTGSGSGTEFTLTISSVQAEDLAVYYCQNNYWFPFTFGAGTKLELK
B11: 262H9H6 (antibody, V domains shown)
VH: QAYLQQSGAELVRSGASVKMSCKASGYTFTSHNMHWVKQTPGQGLEWIGYISPGNGYTNYNQKFRGKATLTADTSSSTAYMQISSLTSEDSAVYFCTRDYYGNSFTYWGQGTLVTVSA
VL: DIVMTQSPSSLTEKAGERVSMSCKSSQSLFNSGNQKNYLTWYQQKPGQPPKLLIYWASTRESGVPDRFTGSGSGTEFTLTISSVQAEDLAVYYCQNNYWFPFTFGAGTKLELK
B12: 260G9E8 (antibody, V domains shown)
VH: QADLQQSGAELVRSGASVKMSCKASGYTFASHNMHWVKQTPGQGLEWIGYIYPGNGGTKYNQKFTGKATLTADTSSSTAYMQITSLTSEDSAVYFCARDYYGNSFAYWGQGTLVTVSA
VL: DIVMTQSPSSLTEKAGEKVSMRCKSSQSLLNSGNQKNYLTWYQQKPGQPPKLLIYWASTRESGVPDRFTGSGSGTDFTLTISSVQADDLAVYYCQNDYMFPFTFGAGTKLELK
B13: 259C6F4 (antibody, V domains shown)
VH: QAYLQQSGAELVRSGASVKMSCKASGYTFSSHNIHWVKQTPGQGLEWIGYIYPGNGDTNYNQKFKGKATLTADTSSSTAYMQISSLTSEDSAVYFCARDYYGNSFVYWGQGTLVTVSA
VL: DIVMIQSPSSLTEKAGEKVSMSCKSSQSLLNSGNQKNYLTWYQQKPGQPPKLLIYWASTRESGVPDRFTGSGSGTDFTLTISSVQAEDLAVYYCQNAYRFPFTFGAGTKLELK
B14: 257G7F7 (antibody, V domains shown)
VH: QAYLQQSGAELVRSGASVKMSCKASGYTFTSHNLHWVKQTPGQGLEWIGYIYPGNGNTNYNQKFKGKATLTADTSSSTAYMQISSLTSEDSAVYFCTRDYYGNSFAYWGQGTLVTVSA
VL: DIVMTQSPSSLTEKAGERVSMSCKSSQSLFNSGNQKNYLTWYQQKPGQPPKLLIYWASTRESGVPDRFTGSGSGTDFTLTISSVQAEDLAVYYCQNNYWFPFTFGAGTKLELK
B15: 258D11C4 (antibody, V domains shown)
VH: QAYLQQSGAELVRSGASVKMSCKASGYTFSSHNMHWVKQTPGQGLEWIGYIYPGNGGTNYNQKFKGKATLTADTSSSTAYMQISSLTSEDSAVYFCTRDYYGNSFAYWGQGTLVTVSA
VL: DIVMTQSPSSLTEKAGERVSMSCKSSQSLFNSGNQKNYLTWYQQKPGQPPKLLIYWASTRQSGVPDRFTGSGSGTDFTLTISSVQAEDLAVYYCQNDYWFPFTFGAGTKLELK
B16: 265E6G2 (antibody, V domains shown)
VH: QAYLQQSGAELVRSGASVKMSCKASGYTFTSYNMHWVKQTPGQGLEWIGYIYPGNGGTNYNQKFKGKATLTADTSSSTAYMQISSLTSEDSAVYFCARDYYGNSFAYWGQGTLVTVSA
VL: DLVMTQSPSSLTVTAGEKVTMSCKSSQSLLNSGNQKNYLTWYQQKPGQPPKLLIYWASTRESGVPDRFTGSGSGTDFTLTISNIQAEDLAVYYCQNDYSYPLPFGAGTKLELR
B17: 259C6F7 (antibody, V domains shown)
VH: QAYLQQSGAELVRSGASVKMSCKASGYTFSSHNIHWVKQTPGQGLEWIGYIYPGNGDTNYNQKFKGKATLTADTSSSTAYMQISSLTSEDSAVYFCARDYYGNSFVYWGQGTLVTVSA
VL: DIVMIQSPSSLTEKAGEKVSMSCKSSQSLLNSGNQKNYLTWYQQKPGQPPKLLIYWASTRESGVPDRFTGSGSGTDFTLTISSVQAEDLAVYYCQNAYRFPFTFGAGTKLELK
B18: 268D7H9 (antibody, V domains shown)
VH: QAYLQQSGAELVRSGASVKMSCKASGYTFTNYNIHWVKQTPGQGLEWIGYIYPGNGGNYYNQKFKGKATLTADTSSSTAYMQISSLTSEDSAVYFCARDYYGNSFAYWGQGTLVTVSA
VL: DIAMTQSPSSLTVTAGEKVTMNCKSSQSLLNSGNQKNYLTWYQQKPGQPPKLLIYWASTRESGVPDRFTGSGSGTDFTLTISSVQAEDLAIYYCQNDYYYPLTFGAGTTLELK
B19: 260F8A6 (antibody, V domains shown)
VH: QAYLQQSGAELVRSGASVKMSCRASGYTFTSHNMHWVKQTPGQGLEWIGYIYPGNGNTYYNQKFKGKATLTADTSSNTAYMQINSLTSEDSAVYFCVRDYYGNSFVYWGQGTLVTVSA
VL: DVVMTQSPSSLTEKTGEKVSMSCKSSQSLLNSGNQKNYLTWYQQKPGQPPKLLIYWASTRESGVPDRFIGSGSGTDFTLTISSLQTEDLAVYYCQNNYMYPFTFGAGTKLELK

Each binder was assayed against human Claudin18.2 (human) (assay: cell-based or functional assay).
B1 was tested, and the “CDC % Relative activity” value was 93.6% and the “CDC EC50” value was 1.69 µg/mL. For B2, the “CDC % Relative activity” value was 574% and the “CDC EC50” value was 0.275 µg/mL. For B3, the “CDC % Relative activity” value was 116% and the “CDC EC50” value was 1.48 µg/mL. B4 was tested, and the “CDC % Relative activity” value was 97.4% and the “CDC EC50” value was 1.77 µg/mL. For B5, the “CDC % Relative activity” value was 142% and the “CDC EC50” value was 1.21 µg/mL. B6 was tested, and the “CDC % Relative activity” value was 88.2% and the “CDC EC50” value was 1.69 µg/mL. In the case of B7, the “CDC % Relative activity” value is reported as 147% and the “CDC EC50” value is reported as 1.01 µg/mL. With B8 the “CDC % Relative activity” value was 145% and the “CDC EC50” value was 1.12 µg/mL. For B9, the “CDC % Relative activity” value was 520% and the “CDC EC50” value was 0.331 µg/mL. B10 was tested, and the “CDC % Relative activity” value was 172% and the “CDC EC50” value was 1 µg/mL. With B11 the “CDC % Relative activity” value was 183% and the “CDC EC50” value was 0.941 µg/mL. For B12, the “CDC % Relative activity” value was 164% and the “CDC EC50” value was 1.05 µg/mL. In the case of B13, the “CDC % Relative activity” value is reported as 125% and the “CDC EC50” value is reported as 1.19 µg/mL. In the case of B14, the “CDC % Relative activity” value is reported as 141% and the “CDC EC50” value is reported as 1.06 µg/mL. With B15 the “CDC % Relative activity” value was 142% and the “CDC EC50” value was 1.05 µg/mL. For B16, the “CDC % Relative activity” value was 526% and the “CDC EC50” value was 0.327 µg/mL. In the case of B17, the “CDC % Relative activity” value is reported as 117% and the “CDC EC50” value is reported as 1.27 µg/mL. In the case of B18, the “CDC % Relative activity” value is reported as 140% and the “CDC EC50” value is reported as 1.23 µg/mL. For B19, the “CDC % Relative activity” value was 129% and the “CDC EC50” value was 1.15 µg/mL.
